Biological target: macrophage mannose receptor on J774E murine monocyte/macrophage cells (murine) (UniProt Q61830)
Test: cell-based or functional assay

## Cerezyme (from UniProt P04062 40-536) (enzyme)
  Vmax for uptake in the J774E macrophage cell line: 0.52
